Experimental findings from patent US20250376505A1 (UNIVERSITE DE STRASBOURG, published 2025) are described below.

The target in test [1] is T1, VP1 pentamer of BKV genotype II (BK virus genotype II, UniProt P14996 30-300).
T1 construct: also called VP1 pentamers of genotype II; GII; not shown: N-terminal His-tag of pESPRIT002; C-terminal biotin acceptor peptide (BAP) of pESPRIT002
Put plainly: ELISA, coated VP1 pentamer. (An ELISA detects its analyte on a solid surface through an enzyme-linked reagent.)

Test [2] concerns the target T2, VP1 pentamer of BKV genotype IV (BK virus genotype IV, UniProt P14996 30-300).
T2 construct: also called VP1 pentamers of genotype IV; GIV; not shown: N-terminal His-tag of pESPRIT002; C-terminal biotin acceptor peptide (BAP) of pESPRIT002
Put plainly: ELISA, coated VP1 pentamer.

Test [3] addresses VP1 capsid protein on BKV genotype Ia pseudovirions (BK-D; JF894228) (BK virus genotype Ia (BK-D)). Put plainly: cell-based or functional assay.
Test [4] has as its target VP1 capsid protein on BKV genotype IVc2 pseudovirions (A-66H; AB369093) (BK virus genotype IVc2 (A-66H)). In words: cell-based or functional assay.
For test [5], the target named is VP1 capsid protein on BKV genotype II pseudovirions (GBR-12; AB263920) (BK virus genotype II (GBR-12)). In words: cell-based or functional assay.

As a reminder, the EC50 is the midpoint of the concentration-response curve. Read a low EC50 as an effect from little substance.

Bounds are passed on as bounds.

B1: D9P6 (antibody, V domains shown)
VH: QLQLQESGPGLVKPSETLSLTCTVSGTYISTNSYYWGWIRQPPGKGLEWIGSIEYGGSTYYNPSLRSRLTISVDTSKNHFSLRLSSVTAADTAMYYCASANSHYYDSGGYCAPSALDIWGQGTMVTVSS
VL: EIVMTQSPATLSVSPGERVTLSCRASQSASSHLAWYQHKRGQAPRLLIYAASSRATGIPARFSGRGSGTEFTLTISSLQSEDFAVYYCQQYNNWPPGYSFGQGTKLEIK
Regarding B1, the EC50 came to 9 µg/mL in test [1] and 4 µg/mL in test [2]. Besides, the “Neutralization PSV IC50” value in test [3], in test [4] and in test [5] was over 50 µg/mL throughout.

B2: D11P7 (antibody, V domains shown)
VH: EVQLVESGGGLVQPGGSLRLSCAASGFTFRSYTMDWVRQAPGKGLEWVSCISGSSNHKYYADSVRGRFTISRDNAKNSLFLQMNSLRAEDSAVYYCAREDDILTPLYGMDVWGPGTTVTVSS
VL: QSALTQPASVSGSPGQSITISCTGTSSDVGAYNYVSWYRLRPGKDPHLIIYDVSHRPAGVSNRFSGSKSGNTASLTISGLQAEDEDEYYCCSYAHRGTPLFGGGTKLTVL
Regarding B2, the binding result in test [1] and in test [2] was “no binding (tested: 50 µg/mL (starting concentration))” each time.

B3: C9P1 (antibody, V domains shown)
VH: EVQLLESGGGLVQPGGSLRLSCVTSGFTFSSYSMTWVRQAPGKGLEWVSYISSSSRTISYADSVQGRFTISRDNAKNVLYLQMNSLRAEDTAVYYCARQAVAHFDYWGQGTLVTVSS
VL: EIVLTQSPGTLSLSPGERATLSCRASQRVSSNYLAWYQQKPGQAPRLLIYGASSRATGIPDRFSGSGSGTDFTLTISRLEPEDFAVYYCQQYGTSPRSFGQGTKVEIK
On to B3, for which the binding result in test [1] and in test [2] was “no binding (tested: 50 µg/mL (starting concentration))” throughout.

B4: B5P4 (antibody, V domains shown)
VH: QVQLVQSGAEVKKPGSSVKVSCKASGGRFSRYGSSWVRQAPGQGLEWMGGIIPLLGTANYAQKFQDRVSITADESTSTVYMHLSSLRSEDTAVYYCATARREYDRPGAEYFIQWGQGTLVTVSS
VL: EIVMTQSPATLSVSPGERATLSCRASQSVSTNLAWYQQKPGQAPRLLIYDAFLRATGIPARFSGSGSGTEFTLTISSLQPEDFAVYYCQQYNYWPPLTFGGGTKVEIK
In the case of B4, the binding result in test [1] and in test [2] was “no binding (tested: 50 µg/mL (starting concentration))” each time.

B5: E10P2 (antibody, V domains shown)
VH: EVQLLESGGALVQPGGSLRLSCAASGFTFRSYAMNWVRQAPGKGLEWVSSLSSSGTTTYYADSVKGRFTISRDNSKNTMYLQMDSLRGEDTAVYYCAKDRNAQWLGSEPLDPWGQGTLVTVSS
VL: EIVLTQSPGTLSLSPGERATLSCRASQSVSSSYLAWYQQKPGQAPRLLIYGASSRATGIPDRFSGSGSGTDFTLTISSLQPDDFAIYYCQQAYTFPWTFGQGTKLEIK
For the molecule B5, the binding result in test [1] and in test [2] was “no binding (tested: 50 µg/mL (starting concentration))” throughout.
